From paper PMC6281772

Target: tropomyosin of native porcine cardiac thin filaments (porcine (endogenous in pig heart)) (UniProt P42639)
Assay: cryo-EM structure

- frequency of segments with C1 in the C1-S position (C1 tethers actin and Tm): 36%
Substance: C0C1 fragment of human cardiac myosin binding protein-C (C0-PA-C1) (domain or fragment)
